# Measurements published in US20120093810A1 (EVEC, published 2012).
# Positions count from the first letter of the chain named. In names and notes the source's numbering stands. No end group written: not given here. cellulose membrane = not defined here
# T1: synthetic gB peptide, Peptide 3 in Table 5 (human cytomegalovirus, AD169 strain, reading uncertain)
# T1 construct: also called peptide number 3
# T1 peptide: SCVTINQTSVKV-{cellulose membrane}
# T2: synthetic gB peptide, Peptide 7 in Table 5 (human cytomegalovirus, AD169 strain, reading uncertain)
# T2 construct: 12-mer of gB; also called peptide number 7
# T2 peptide: NVKESPGRCYSR-{cellulose membrane}
# T3: synthetic gB peptide, Peptide 8 in Table 5 (human cytomegalovirus, AD169 strain, reading uncertain)
# T3 construct: 12-mer of gB; also called peptide number 8
# T3 peptide: SPGRCYSRPVVI-{cellulose membrane}
# T4: synthetic gB peptide, Peptide 21 in Table 5 (human cytomegalovirus, AD169 strain, reading uncertain)
# T4 construct: 12-mer of gB; also called peptide number 21
# T4 peptide: GNSAYEYVDYLF-{cellulose membrane}
# T5: synthetic gB peptide, Peptide 22 in Table 5 (human cytomegalovirus, AD169 strain, reading uncertain)
# T5 construct: 12-mer of gB; also called peptide number 22
# T5 peptide: YEYVDYLFKRMI-{cellulose membrane}
# B1: anti-AD1 antibody EV2038 (antibody, human IgG1, lambda, V domains shown)
# VH: QVQLQQWGAGLLKPSETLSLTCAVYGGSFSGYYWGWIRQPPGKGLEWIGEINHSGSANSNPSLKSRVTMSVDTSKNQFSLKVSSVTAADTAVYFCARVTRDLEWIPGDYYMDVWGKGTTVTVSS
# VL: QSVLTQPPSASGTPGQRVSISCSGSLSNIGTNYVYWYQQLPGTAPKLLIFKNNQRPSGVPDRFSGSKSGTSASLAISGLRSEDEADYYCAAWDDSLNGYVFGTGTKVTVLG
# notes: complete human IgG1λ; also called EV2038 (original); anti-HCMV antibody (EV2038)
# B2: EV2038 CDR-H3 variant I124D (antibody, V domains shown)
# VH: B1 VH with I105D
# VL: B1 VL
# notes: original EV2038 L-chain
# B3: EV2038 CDR-H3 variant I124V (antibody, V domains shown)
# VH: B1 VH with I105V
# VL: B1 VL
# B4: EV2038 CDR-H3 variant P125A (antibody, V domains shown)
# VH: B1 VH with P106A
# VL: B1 VL
# notes: original EV2038 L-chain
# B5: EV2038 CDR-H3 variant P125C (antibody, V domains shown)
# VH: B1 VH with P106C
# VL: B1 VL
# notes: original EV2038 L-chain
# B6: EV2038 CDR-H3 variant P125D (antibody, V domains shown)
# VH: B1 VH with P106D
# VL: B1 VL
# notes: original EV2038 L-chain
# B7: EV2038 CDR-H3 variant P125E (antibody, V domains shown)
# VH: B1 VH with P106E
# VL: B1 VL
# notes: original EV2038 L-chain
# B8: EV2038 CDR-H3 variant P125F (antibody, V domains shown)
# VH: B1 VH with P106F
# VL: B1 VL
# notes: original EV2038 L-chain
# B9: EV2038 CDR-H3 variant P125G (antibody, V domains shown)
# VH: B1 VH with P106G
# VL: B1 VL
# notes: original EV2038 L-chain
# B10: EV2038 CDR-H3 variant P125H (antibody, V domains shown)
# VH: B1 VH with P106H
# VL: B1 VL
# notes: original EV2038 L-chain
# B11: EV2038 CDR-H3 variant P125I (antibody, V domains shown)
# VH: B1 VH with P106I
# VL: B1 VL
# notes: original EV2038 L-chain
# B12: EV2038 CDR-H3 variant P125K (antibody, V domains shown)
# VH: B1 VH with P106K
# VL: B1 VL
# notes: original EV2038 L-chain
# B13: EV2038 CDR-H3 variant P125L (antibody, V domains shown)
# VH: B1 VH with P106L
# VL: B1 VL
# notes: original EV2038 L-chain
# B14: EV2038 CDR-H3 variant P125M (antibody, V domains shown)
# VH: B1 VH with P106M
# VL: B1 VL
# notes: original EV2038 L-chain
# B15: EV2038 CDR-H3 variant P125N (antibody, V domains shown)
# VH: B1 VH with P106N
# VL: B1 VL
# notes: original EV2038 L-chain
# B16: EV2038 CDR-H3 variant P125Q (antibody, V domains shown)
# VH: B1 VH with P106Q
# VL: B1 VL
# notes: original EV2038 L-chain
# B17: EV2038 CDR-H3 variant P125R (antibody, V domains shown)
# VH: B1 VH with P106R
# VL: B1 VL
# notes: original EV2038 L-chain
# B18: EV2038 CDR-H3 variant P125S (antibody, V domains shown)
# VH: B1 VH with P106S
# VL: B1 VL
# notes: original EV2038 L-chain
# B19: EV2038 CDR-H3 variant P125T (antibody, V domains shown)
# VH: B1 VH with P106T
# VL: B1 VL
# notes: original EV2038 L-chain
# B20: EV2038 CDR-H3 variant P125V (antibody, V domains shown)
# VH: B1 VH with P106V
# VL: B1 VL
# notes: original EV2038 L-chain
# B21: EV2038 CDR-H3 variant P125W (antibody, V domains shown)
# VH: B1 VH with P106W
# VL: B1 VL
# notes: original EV2038 L-chain
# B22: EV2038 CDR-H3 variant P125Y (antibody, V domains shown)
# VH: B1 VH with P106Y
# VL: B1 VL
# notes: original EV2038 L-chain
# B23: EV2038 CDR-H3 variant V132K (antibody, V domains shown)
# VH: B1 VH with V113K
# VL: B1 VL
# B24: EV2038 CDR-H3 deletion variant E122del (antibody, V domains shown)
# VH: QVQLQQWGAGLLKPSETLSLTCAVYGGSFSGYYWGWIRQPPGKGLEWIGEINHSGSANSNPSLKSRVTMSVDTSKNQFSLKVSSVTAADTAVYFCARVTRDLWIPGDYYMDVWGKGTTVTVSS
# VL: B1 VL
# notes: original EV2038 L-chain
# B25: EV2038 CDR-H3 insertion variant G126_D127insE (antibody, V domains shown)
# VH: QVQLQQWGAGLLKPSETLSLTCAVYGGSFSGYYWGWIRQPPGKGLEWIGEINHSGSANSNPSLKSRVTMSVDTSKNQFSLKVSSVTAADTAVYFCARVTRDLEWIPGEDYYMDVWGKGTTVTVSS
# VL: B1 VL
# notes: original EV2038 L-chain
# How the values were obtained:
# [1] = target: T6, glycoprotein gB of human cytomegalovirus (HCMV) AD169 strain (human cytomegalovirus, AD169 strain, UniProt P06473 32-906); assay: cell-based or functional assay
# [2] = target: T6, glycoprotein gB of human …; assay: cell-based or functional assay; remark: listed apart in the source
# [3] = target: glycoprotein gB of HCMV laboratory strain Towne (human cytomegalovirus, Towne strain, UniProt P13201 23-907); assay: cell-based or functional assay
# [4] = target: glycoprotein gB of HCMV laboratory strain Merlin (human cytomegalovirus, Merlin strain, UniProt F5HB53 25-907); assay: cell-based or functional assay
# [5] = target: glycoprotein gB of HCMV laboratory strain Davis (human cytomegalovirus, Davis strain); assay: cell-based or functional assay
# [6] = target: glycoprotein gB of clinically isolated HCMV strain T-137 (human cytomegalovirus, clinical isolate …); assay: cell-based or functional assay
# [7] = target: glycoprotein gB of clinically isolated HCMV strain MDU-1 (human cytomegalovirus, clinical isolate …, UniProt P08195); assay: cell-based or functional assay
# [8] = target: T1, synthetic gB peptide, Peptide 3 in …; assay: peptide array (SPOTs), dot blot
# [9] = target: T2, synthetic gB peptide, Peptide 7 in …; assay: peptide array (SPOTs), dot blot
# [10] = target: T3, synthetic gB peptide, Peptide 8 in …; assay: peptide array (SPOTs), dot blot
# [11] = target: T4, synthetic gB peptide, Peptide 21 in …; assay: peptide array (SPOTs), dot blot
# [12] = target: T5, synthetic gB peptide, Peptide 22 in …; assay: peptide array (SPOTs), dot blot
# [13] = target: T7, GST-fused HCMV-AD1 (AD1 region of HCMV glycoprotein gB) (human cytomegalovirus, AD169 strain, UniProt F5HB53 485-651); assay: ELISA on solid-phased AD1
# T7 construct: also called solid-phased AD1; AD1 antigen; not shown: glutathione S-transferase (GST) fusion partner
# [14] = target: T6, glycoprotein gB of human …; assay: cell-based or functional assay; remark: listed apart in the source
# [15] = target: T7, GST-fused HCMV-AD1 (AD1 region of HCMV …); assay: ELISA on solid-phased AD1 (5 µg/mL)
# Sequence of glycoprotein gB of clinically isolated HCMV strain MDU-1 (P08195 102-630): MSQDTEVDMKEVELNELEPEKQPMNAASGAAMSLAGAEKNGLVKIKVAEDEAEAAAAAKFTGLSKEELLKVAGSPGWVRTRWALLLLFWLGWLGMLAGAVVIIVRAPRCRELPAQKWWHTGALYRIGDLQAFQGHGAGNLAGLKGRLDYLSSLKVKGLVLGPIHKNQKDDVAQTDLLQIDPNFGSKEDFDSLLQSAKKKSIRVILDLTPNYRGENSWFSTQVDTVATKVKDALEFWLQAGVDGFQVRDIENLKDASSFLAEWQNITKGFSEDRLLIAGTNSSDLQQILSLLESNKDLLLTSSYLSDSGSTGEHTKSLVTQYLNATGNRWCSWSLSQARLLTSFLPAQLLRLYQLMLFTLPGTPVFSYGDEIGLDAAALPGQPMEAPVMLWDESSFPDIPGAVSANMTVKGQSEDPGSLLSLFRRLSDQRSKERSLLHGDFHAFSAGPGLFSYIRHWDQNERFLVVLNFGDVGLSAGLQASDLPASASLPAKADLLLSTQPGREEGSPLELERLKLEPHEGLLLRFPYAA
# T6 sequence (P06473 32-906 limits assumed): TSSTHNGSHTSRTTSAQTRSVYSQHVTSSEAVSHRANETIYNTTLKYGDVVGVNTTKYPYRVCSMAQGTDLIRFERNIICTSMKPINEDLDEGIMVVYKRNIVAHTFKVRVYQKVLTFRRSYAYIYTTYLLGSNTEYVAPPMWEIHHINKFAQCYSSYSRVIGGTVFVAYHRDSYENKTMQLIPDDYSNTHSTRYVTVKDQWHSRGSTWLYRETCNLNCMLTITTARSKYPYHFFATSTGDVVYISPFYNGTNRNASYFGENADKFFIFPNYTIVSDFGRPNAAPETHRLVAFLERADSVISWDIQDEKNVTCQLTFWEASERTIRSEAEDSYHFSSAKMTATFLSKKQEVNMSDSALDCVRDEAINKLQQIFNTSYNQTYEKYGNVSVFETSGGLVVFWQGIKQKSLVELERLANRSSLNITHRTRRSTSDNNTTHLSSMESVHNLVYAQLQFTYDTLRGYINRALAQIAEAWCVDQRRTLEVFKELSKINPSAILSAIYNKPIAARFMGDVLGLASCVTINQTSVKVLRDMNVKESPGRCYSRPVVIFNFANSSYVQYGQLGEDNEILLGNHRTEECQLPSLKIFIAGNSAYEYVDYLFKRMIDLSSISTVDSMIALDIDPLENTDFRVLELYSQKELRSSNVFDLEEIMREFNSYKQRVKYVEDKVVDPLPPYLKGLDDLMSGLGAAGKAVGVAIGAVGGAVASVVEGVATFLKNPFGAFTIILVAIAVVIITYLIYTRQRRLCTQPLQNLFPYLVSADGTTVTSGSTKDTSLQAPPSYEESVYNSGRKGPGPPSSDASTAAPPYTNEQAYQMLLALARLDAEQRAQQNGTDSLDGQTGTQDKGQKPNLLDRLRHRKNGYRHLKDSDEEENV
# T7 sequence (F5HB53 485-651): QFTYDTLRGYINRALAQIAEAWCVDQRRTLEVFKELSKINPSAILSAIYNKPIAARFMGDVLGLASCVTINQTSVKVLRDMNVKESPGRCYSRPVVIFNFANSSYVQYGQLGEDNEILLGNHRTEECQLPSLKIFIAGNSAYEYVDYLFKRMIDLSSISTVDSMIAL
# Sequence of glycoprotein gB of HCMV laboratory strain Towne (P13201 23-907 limits assumed): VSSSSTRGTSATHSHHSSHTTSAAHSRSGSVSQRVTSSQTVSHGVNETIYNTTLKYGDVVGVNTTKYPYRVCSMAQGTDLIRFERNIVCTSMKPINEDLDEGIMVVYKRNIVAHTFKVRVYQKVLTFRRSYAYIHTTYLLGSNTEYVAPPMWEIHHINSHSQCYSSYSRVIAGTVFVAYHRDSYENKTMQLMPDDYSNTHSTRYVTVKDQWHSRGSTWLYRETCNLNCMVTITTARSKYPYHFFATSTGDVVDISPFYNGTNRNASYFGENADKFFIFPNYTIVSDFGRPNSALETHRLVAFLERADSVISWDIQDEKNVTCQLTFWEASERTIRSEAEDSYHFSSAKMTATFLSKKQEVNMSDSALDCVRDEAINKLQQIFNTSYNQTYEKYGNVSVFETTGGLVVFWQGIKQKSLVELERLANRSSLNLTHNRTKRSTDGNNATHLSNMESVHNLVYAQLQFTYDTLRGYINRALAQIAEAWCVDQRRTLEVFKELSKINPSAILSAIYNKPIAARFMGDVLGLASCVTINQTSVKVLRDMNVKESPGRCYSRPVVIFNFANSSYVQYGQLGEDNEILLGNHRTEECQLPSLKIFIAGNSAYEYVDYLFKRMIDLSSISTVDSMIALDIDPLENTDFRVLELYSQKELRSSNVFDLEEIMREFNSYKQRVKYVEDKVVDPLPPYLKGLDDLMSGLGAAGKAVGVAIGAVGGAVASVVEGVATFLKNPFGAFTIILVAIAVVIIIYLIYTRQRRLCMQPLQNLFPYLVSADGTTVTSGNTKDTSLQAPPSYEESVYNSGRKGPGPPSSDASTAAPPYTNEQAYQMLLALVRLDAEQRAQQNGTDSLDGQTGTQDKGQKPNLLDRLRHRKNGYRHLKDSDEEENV
# Sequence of glycoprotein gB of HCMV laboratory strain Merlin (F5HB53 25-907 limits assumed): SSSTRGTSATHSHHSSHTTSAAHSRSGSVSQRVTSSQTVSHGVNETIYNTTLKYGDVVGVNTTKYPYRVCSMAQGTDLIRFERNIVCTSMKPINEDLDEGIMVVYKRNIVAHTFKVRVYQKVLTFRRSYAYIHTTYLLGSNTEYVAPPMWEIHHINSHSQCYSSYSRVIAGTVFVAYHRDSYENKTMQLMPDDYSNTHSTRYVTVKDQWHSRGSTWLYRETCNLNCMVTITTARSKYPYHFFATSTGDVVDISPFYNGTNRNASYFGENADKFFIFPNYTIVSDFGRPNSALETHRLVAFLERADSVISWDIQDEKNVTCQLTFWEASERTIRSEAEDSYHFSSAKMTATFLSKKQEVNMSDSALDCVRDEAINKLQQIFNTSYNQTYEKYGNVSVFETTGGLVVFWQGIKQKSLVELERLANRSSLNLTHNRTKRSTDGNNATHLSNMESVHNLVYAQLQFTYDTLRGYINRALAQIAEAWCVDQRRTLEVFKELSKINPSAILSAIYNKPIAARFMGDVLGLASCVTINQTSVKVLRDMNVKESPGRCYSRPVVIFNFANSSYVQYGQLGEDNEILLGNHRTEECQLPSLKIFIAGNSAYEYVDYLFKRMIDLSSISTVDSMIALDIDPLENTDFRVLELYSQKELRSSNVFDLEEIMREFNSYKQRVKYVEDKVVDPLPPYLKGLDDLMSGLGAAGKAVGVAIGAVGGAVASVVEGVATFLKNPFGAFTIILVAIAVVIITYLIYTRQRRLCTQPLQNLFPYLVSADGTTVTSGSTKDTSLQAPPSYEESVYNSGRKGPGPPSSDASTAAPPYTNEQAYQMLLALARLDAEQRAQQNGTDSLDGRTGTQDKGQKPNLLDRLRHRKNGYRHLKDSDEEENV
binder,measurement,setting,value
B1,"IC50 of neutralisation of HCMV AD169 infection of MRC-5 cells (IE1 immunostaining), with complement (Cp+)",[1],0.58 µg/mL
same,"IC50 of neutralisation of HCMV AD169 infection of MRC-5 cells (IE1 immunostaining), without complement (Cp-)",[1],0.57 µg/mL
same,"IC50 of plaque formation, HCMV AD169, fibroblast cell",[2],0.027 µg/mL
same,"IC50 of plaque formation, HCMV AD169, fibroblast cell (mol concentration)",[2],0.18 nM
same,"IC50 of plaque formation, HCMV Towne, fibroblast cell",[3],0.025 µg/mL
same,"IC50 of plaque formation, HCMV Towne, fibroblast cell (mol concentration)",[3],0.17 nM
same,"IC50 of plaque formation, HCMV Merlin, fibroblast cell",[4],0.012 µg/mL
same,"IC50 of plaque formation, HCMV Merlin, fibroblast cell (mol concentration)",[4],0.08 nM
same,"IC50 of plaque formation, HCMV Davis, fibroblast cell",[5],0.037 µg/mL
same,"IC50 of plaque formation, HCMV Davis, fibroblast cell (mol concentration)",[5],0.25 nM
same,"IC50 of plaque formation, clinical isolate T-137, fibroblast cell",[6],0.07 µg/mL
same,"IC50 of plaque formation, clinical isolate T-137, fibroblast cell (mol concentration)",[6],0.47 nM
same,"IC50 of plaque formation, clinical isolate MDU-1, epithelial cell",[7],0.04 µg/mL
same,"IC50 of plaque formation, clinical isolate MDU-1, fibroblast cell",[7],0.044 µg/mL
same,"IC50 of plaque formation, clinical isolate MDU-1, fibroblast cell (mol concentration)",[7],0.29 nM
same,binding result,[8],binds
same,binding result,[9],binds
same,binding result,[10],binds
same,binding result,[11],binds
same,binding result,[12],binds
B2,binding result,[13],no binding
B3,50% inhibition concentration (IC50) of HCMV infection (immunostaining method of Abai et al.),[14],0.45 µg/mL
B4,binding result,[15],"no binding (tested: 1 µg/mL, dilution series)"
B5,binding result,[15],"no binding (tested: 1 µg/mL, dilution series)"
B6,binding result,[15],"no binding (tested: 1 µg/mL, dilution series)"
B7,binding result,[15],"no binding (tested: 1 µg/mL, dilution series)"
B8,binding result,[15],"no binding (tested: 1 µg/mL, dilution series)"
B9,binding result,[15],"no binding (tested: 1 µg/mL, dilution series)"
B10,binding result,[15],"no binding (tested: 1 µg/mL, dilution series)"
B11,binding result,[15],"no binding (tested: 1 µg/mL, dilution series)"
B12,binding result,[15],"no binding (tested: 1 µg/mL, dilution series)"
B13,binding result,[15],"no binding (tested: 1 µg/mL, dilution series)"
B14,binding result,[15],"no binding (tested: 1 µg/mL, dilution series)"
B15,binding result,[15],"no binding (tested: 1 µg/mL, dilution series)"
B16,binding result,[15],"no binding (tested: 1 µg/mL, dilution series)"
B17,binding result,[15],"no binding (tested: 1 µg/mL, dilution series)"
B18,binding result,[15],"no binding (tested: 1 µg/mL, dilution series)"
B19,binding result,[15],"no binding (tested: 1 µg/mL, dilution series)"
B20,binding result,[15],"no binding (tested: 1 µg/mL, dilution series)"
B21,binding result,[15],"no binding (tested: 1 µg/mL, dilution series)"
B22,binding result,[15],"no binding (tested: 1 µg/mL, dilution series)"
B23,50% inhibition concentration (IC50) of HCMV infection (immunostaining method of Abai et al.),[14],1.2 µg/mL
B24,binding result,[13],no binding
B25,binding result,[13],no binding
